Results: patent publication US20020142392A1 (WA PHARM, published 2002)

T1: MC-2 receptor, polypeptide of SEQ ID NO:16 (human, UniProt P33032 1-325)
T1 construct: Tested on COS-7 cells transfected with pE-MC-2; also called MSH receptor subtype; pE-MC-2 transfected COS-7 cells
T1 chain: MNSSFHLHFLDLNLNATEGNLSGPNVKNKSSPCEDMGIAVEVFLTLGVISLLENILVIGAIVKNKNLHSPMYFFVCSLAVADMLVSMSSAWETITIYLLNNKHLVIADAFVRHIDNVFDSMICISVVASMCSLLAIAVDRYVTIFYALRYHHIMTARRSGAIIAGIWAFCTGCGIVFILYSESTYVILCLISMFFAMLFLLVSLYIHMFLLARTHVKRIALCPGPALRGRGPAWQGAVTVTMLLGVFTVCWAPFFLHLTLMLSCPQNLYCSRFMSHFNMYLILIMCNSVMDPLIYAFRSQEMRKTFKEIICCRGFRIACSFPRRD

T2: human melanocyte stimulating hormone receptor (MSH receptor), polypeptide of SEQ ID NO:2 (human, UniProt Q01726 1-317)
T2 construct: also called 11D cDNA product; expressed MSH receptor
T2 sequence: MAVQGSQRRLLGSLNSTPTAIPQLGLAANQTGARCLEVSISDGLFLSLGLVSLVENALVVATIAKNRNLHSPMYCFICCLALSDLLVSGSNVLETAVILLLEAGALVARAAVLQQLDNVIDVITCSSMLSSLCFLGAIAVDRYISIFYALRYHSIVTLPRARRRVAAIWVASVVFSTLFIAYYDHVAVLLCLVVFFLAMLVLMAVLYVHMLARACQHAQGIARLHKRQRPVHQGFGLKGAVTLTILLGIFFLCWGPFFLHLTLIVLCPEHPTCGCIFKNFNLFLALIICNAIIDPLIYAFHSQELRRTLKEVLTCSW

B1: β-MSH (peptide, UniProt P01189 217-234, looked up)
peptide: DEGPYRMEHFRWGSPPKD
notes: domain: β-MSH; Bought from Saxon Biochemicals GmbH; also called beta-melanocyte stimulating hormone
B2: β-endorphin (peptide, UniProt P01189 237-267, looked up)
peptide: YGGFMTSEKSQTPLVTLFKNAIIKNAYKKGE
notes: domain: β-endorphin; Bought from Saxon Biochemicals GmbH; also called non-melanotropic POMC peptide β-endorphin
B3: ACTH (4-10) (peptide, UniProt P01189 141-147, looked up)
peptide: MEHFRWG
notes: domain: ACTH (4-10); Bought from Saxon Biochemicals GmbH
B4: ACTH (1-39) (peptide, UniProt P01189 138-176, looked up)
peptide: SYSMEHFRWGKPVGKKRRPVKVYPNGAEDESAEAFPLEF
notes: domain: ACTH (1-39); Bought from Saxon Biochemicals GmbH; also called adrenocorticotropic hormone (1-39)

Key:
[1] = molecular target: T1, MC-2 receptor, polypeptide of SEQ ID …; assay: competition with 125I-NDP-MSH on pE-MC-2 transfected COS-7 cells; Cheng-Prusoff from IC50
Experimental: (§1) Eighty percent confluent cultures were transfected with 1 μg of pE-MC-2 plasmid DNA and 40 μg lipofectin (BRL, 8400 Helgerman Court, Gaithersburg, Md. 20877, USA) in serum free medium. Five hours after transfection, serum containing medium was replaced, and cells were cultivated for 20 hours. Cells were then scraped off, centrifuged, resuspended in serum containing medium, plated on 48 well plates, and allowed to grow for 24 hours. […] Radioactivity was counted and data analyzed by iterative, non-linear curve fitting programme suitable for radioligand binding analysis (see FIG. 9). […] The Kᵢ-values were then calculated from the IC-50 values estimated thus estimated by using the Cheng and Prusoff equation, as previously described (Cheng and Prusoff 1973).

[2] = molecular target: T2, human melanocyte stimulating hormone …; assay: competition with 125I-NDP-MSH on pE-11D transfected COS-7 cells; Cheng-Prusoff from IC50
Experimental: as §1, with “20877, USA). Eighty” for “Eighty”, “pE-11D” for “pE-MC-2”, “6).” for “9).”

[3] = molecular target: T1, MC-2 receptor, polypeptide of SEQ ID …; assay: competition with 125I-NDP-MSH on pE-MC-2 transfected COS-7 cells
Experimental: as §1

Binder	Ki [1]	Ki [2]	binding result [3]
B1	1750 nM	0.449 nM	–
B2	–	–	no binding
B3	–	22.4 nM	–
B4	929 nM	0.17 nM	–
